Experimental data: patent US20230272055A1 (Incyte, published 2023)

Target: T1, human mutCALR on BaF3 cells stably expressing human MPL and human mutCALR (MPL-mutCALR cells) (human)
T1 construct: also called mutant calreticulin
T1 chain: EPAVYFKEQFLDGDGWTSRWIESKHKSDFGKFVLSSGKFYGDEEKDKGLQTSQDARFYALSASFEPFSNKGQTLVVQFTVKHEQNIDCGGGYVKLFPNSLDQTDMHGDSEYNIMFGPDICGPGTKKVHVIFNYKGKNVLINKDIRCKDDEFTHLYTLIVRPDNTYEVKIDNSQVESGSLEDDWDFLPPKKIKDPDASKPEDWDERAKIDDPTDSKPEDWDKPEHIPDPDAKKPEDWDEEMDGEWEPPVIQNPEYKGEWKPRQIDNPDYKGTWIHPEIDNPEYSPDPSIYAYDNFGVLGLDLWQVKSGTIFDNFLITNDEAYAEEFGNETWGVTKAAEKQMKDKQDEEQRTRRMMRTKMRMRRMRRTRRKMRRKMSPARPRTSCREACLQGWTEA
Test: flow cytometry, BaF3 MPL-mutCALR cells
Description: On the day of the assay, cells were washed and resuspended in assay buffer. Approximately 200,000 cells/well were added to 96-well plates and stained with the indicated concentration of antibodies for 30 minutes on ice. Cells were then washed and stained with goat anti-human secondary conjugated to R-phycoerythrin (R-PE) (Jackson Immuno Research Laboratories) for 30 minutes on ice. The cells were then washed and analyzed by flow cytometry.

Row | Binder | MPL-mutCALR AUC | EC50 [ng/mL]
1 | anti-mutCALR antibody clone 134 (antibody, human IgG1, lambda, N297A) heavy: not shown light: SYVLTQPPSVSVAPGKTARITCGGDNIGSKSVHWYQQKPGQAPVLVVYDDSDRPSGIPERFSGSNSGNTATLTISRVEAGDEADYYCQVWDSSNDLLIFGGGTKLTVLGQPKAAPSVTLFPPSSEELQANKATLVCLISDFYPGAVTVAWKADSSPVKAGVETTTPSKQSNNKYAASSYLSLTPEQWKSHRSYSCQVTHEGSTVEKTVAPTECS | 96700 | –
2 | anti-mutCALR antibody clone 141 (antibody, human IgG1, lambda, N297A, V domains shown) VH: EVQLVQSGAEVKKPGASVKVSCKVSGYTLTELSMQWVRQAPGKGLEWMGGFDPDSGETMYAEKFQGRLTVTEDTSTDTVYMELSSLRSEDTAVYFCATSPGYDFFDYWGQGTLVTVSS VL: SYVLTQPPSVSVAPGKTARITCGGDNIGSKSVHWYQQKPGQAPVLVVYDDSDRPSGIPERFSGSNSGNTATLTISRVEAGDEADYYCQVWDSSNDLLIFGGGTKLTVLG | 60800 | 6.3
3 | anti-mutCALR antibody clone 143 (antibody, human IgG1, lambda, N297A, V domains shown) VH: EVQLVQSGAEVKKPGASVKVSCKVSGYTLTELSMQWVRQAPGKGLEWMGGFDPDDAETMYAEKFQGRLTVTEDTSTDTVYMELSSLRSEDTAVYFCATSPGYDFFDYWGQGTLVTVSS VL: SYVLTQPPSVSVAPGKTARITCGGDNIGSKSVHWYQQKPGQAPVLVVYDDSDRPSGIPERFSGSNSGNTATLTISRVEAGDEADYYCQVWDSSNDLLIFGGGTKLTVLG | 69900 | 7.9
4 | anti-mutCALR antibody clone 170 (antibody, human IgG1, lambda, N297A) heavy: not shown light: SYVLTQPPSVSVAPGQTARITCGGSDIGDEIVHWYQQKPGQAPVLVVYDDSDRPSGIPERFSGSNSGNTATLTISRAQAGDEADYYCQVWDSSSDHLIFGGGTKLTVLGQPKAAPSVTLFPPSSEELQANKATLVCLISDFYPGAVTVAWKADSSPVKAGVETTTPSKQSNNKYAASSYLSLTPEQWKSHRSYSCQVTHEGSTVEKTVAPTECS | 76400 | 23.2
5 | anti-mutCALR antibody clone 174 (antibody, human IgG1, lambda, N297A, V domains shown) VH: EVQLVQSGAEVKKPGASVKVSCKVSGYTLTELSMQWVRQAPGKGLEWMGGFDPDDAETMYAEKFQGRLTVTEDTSTDTVYMELRSLTSEDTALYFCATSPGYDFFDYWGQGTLVTVSS VL: SYVLTQPPSVSVAPGQTARITCGGSDIGDEIVHWYQQKPGQAPVLVVYDDSDRPSGIPERFSGSNSGNTATLTISRAQAGDEADYYCQVWDSSSDHLIFGGGTKLTVLG | 63500 | 4
6 | anti-mutCALR antibody clone 173 (antibody, human IgG1, lambda, N297A, V domains shown) VH: EVQLVQSGAEVKKPGASVKVSCKVSGYTLTELSMQWVRQAPGKGLEWMGGFDPDEGETMYAEKFQGRLTVTEDTSTDTVYMELRSLTSEDTALYFCATSPGYDFFDYWGQGTLVTVSS VL: SYVLTQPPSVSVAPGQTARITCGGSDIGDEIVHWYQQKPGQAPVLVVYDDSDRPSGIPERFSGSNSGNTATLTISRAQAGDEADYYCQVWDSSSDHLIFGGGTKLTVLG | 67300 | 4.3
7 | anti-mutCALR antibody clone 138 (antibody, human IgG1, lambda, N297A, V domains shown) VH: EVQLVQSGAEVKKPGASVKVSCKVSGYTLTELSMQWVRQAPGKGLEWMGGFDPDDAETMYAEKFQGRLTVTEDTSTDTVYMELRSLTSEDTALYFCATSPGYDFFDYWGQGTLVTVSS VL: SYVLTQPPSVSVAPGKTARITCGGDNIGSKSVHWYQQKPGQAPVLVVYDDSDRPSGIPERFSGSNSGNTATLTISRVEAGDEADYYCQVWDSSNDLLIFGGGTKLTVLG | 85800 | 2.6
8 | anti-mutCALR antibody clone 135 (antibody, human IgG1, lambda, N297A, V domains shown) VH: EVQLVQSGAEVKKPGASVKVSCKVSGYTLTELSMQWVRQAPGKGLEWMGGFDPDAGETMYAEKFQGRLTVTEDTSTDTVYMELRSLTSEDTALYFCATSPGYDFFDYWGQGTLVTVSS VL: SYVLTQPPSVSVAPGKTARITCGGDNIGSKSVHWYQQKPGQAPVLVVYDDSDRPSGIPERFSGSNSGNTATLTISRVEAGDEADYYCQVWDSSNDLLIFGGGTKLTVLG | 56300 | 3.2
9 | anti-mutCALR antibody clone 184 (antibody, human IgG1, lambda, N297A, V domains shown) VH: EVQLVQSGAEVKKPGASVKVSCKVSGYTLTELSMQWVRQAPGKGLEWMGGFDPDDAETMYAEKFQGRLTVTEDTSTDTVYMELRSLTSEDTALYFCATSPGYDFFDYWGQGTLVTVSS VL: SYVLTQPPSVSVAPGQTARITCGGSDIGDEIVHWYQQKPGQAPVLVVYDDSDRPSGIPERFSGSNSGNTATLTISRVEAGDEADYYCQVWDSSSDHLIFGGGTKLTVLG | 61600 | 6.3
10 | anti-mutCALR antibody clone 182 (antibody, human IgG1, lambda, N297A, V domains shown) VH: EVQLVQSGAEVKKPGASVKVSCKVSGYTLTELSMQWVRQAPGKGLEWMGGFDPDSGETMYAEKFQGRLTVTEDTSTDTVYMELRSLTSEDTALYFCATSPGYDFFDYWGQGTLVTVSS VL: SYVLTQPPSVSVAPGQTARITCGGSDIGDEIVHWYQQKPGQAPVLVVYDDSDRPSGIPERFSGSNSGNTATLTISRVEAGDEADYYCQVWDSSSDHLIFGGGTKLTVLG | 52100 | 5.2
11 | anti-mutCALR antibody clone 137 (antibody, human IgG1, lambda, N297A, V domains shown) VH: EVQLVQSGAEVKKPGASVKVSCKVSGYTLTELSMQWVRQAPGKGLEWMGGFDPDEGETMYAEKFQGRLTVTEDTSTDTVYMELRSLTSEDTALYFCATSPGYDFFDYWGQGTLVTVSS VL: SYVLTQPPSVSVAPGKTARITCGGDNIGSKSVHWYQQKPGQAPVLVVYDDSDRPSGIPERFSGSNSGNTATLTISRVEAGDEADYYCQVWDSSNDLLIFGGGTKLTVLG | 69700 | 1.7
12 | anti-mutCALR antibody clone 142 (antibody, human IgG1, lambda, N297A, V domains shown) VH: EVQLVQSGAEVKKPGASVKVSCKVSGYTLTELSMQWVRQAPGKGLEWMGGFDPDEGETMYAEKFQGRLTVTEDTSTDTVYMELSSLRSEDTAVYFCATSPGYDFFDYWGQGTLVTVSS VL: SYVLTQPPSVSVAPGKTARITCGGDNIGSKSVHWYQQKPGQAPVLVVYDDSDRPSGIPERFSGSNSGNTATLTISRVEAGDEADYYCQVWDSSNDLLIFGGGTKLTVLG | 71100 | 2.3
13 | anti-mutCALR antibody clone 186 (antibody, human IgG1, lambda, N297A, V domains shown) VH: EVQLVQSGAEVKKPGASVKVSCKVSGYTLTELSMQWVRQAPGKGLEWMGGFDPDAGETMYAEKFQGRLTVTEDTSTDTVYMELSSLRSEDTAVYFCATSPGYDFFDYWGQGTLVTVSS VL: SYVLTQPPSVSVAPGQTARITCGGSDIGDEIVHWYQQKPGQAPVLVVYDDSDRPSGIPERFSGSNSGNTATLTISRVEAGDEADYYCQVWDSSSDHLIFGGGTKLTVLG | 53000 | 3.9
14 | anti-mutCALR antibody clone 183 (antibody, human IgG1, lambda, N297A, V domains shown) VH: EVQLVQSGAEVKKPGASVKVSCKVSGYTLTELSMQWVRQAPGKGLEWMGGFDPDEGETMYAEKFQGRLTVTEDTSTDTVYMELRSLTSEDTALYFCATSPGYDFFDYWGQGTLVTVSS VL: SYVLTQPPSVSVAPGQTARITCGGSDIGDEIVHWYQQKPGQAPVLVVYDDSDRPSGIPERFSGSNSGNTATLTISRVEAGDEADYYCQVWDSSSDHLIFGGGTKLTVLG | 70700 | 5
15 | anti-mutCALR antibody clone 171 (antibody, human IgG1, lambda, N297A, V domains shown) VH: EVQLVQSGAEVKKPGASVKVSCKVSGYTLTELSMQWVRQAPGKGLEWMGGFDPDAGETMYAEKFQGRLTVTEDTSTDTVYMELRSLTSEDTALYFCATSPGYDFFDYWGQGTLVTVSS VL: SYVLTQPPSVSVAPGQTARITCGGSDIGDEIVHWYQQKPGQAPVLVVYDDSDRPSGIPERFSGSNSGNTATLTISRAQAGDEADYYCQVWDSSSDHLIFGGGTKLTVLG | 50300 | 21.7
16 | anti-mutCALR antibody clone 172 (antibody, human IgG1, lambda, N297A, V domains shown) VH: EVQLVQSGAEVKKPGASVKVSCKVSGYTLTELSMQWVRQAPGKGLEWMGGFDPDSGETMYAEKFQGRLTVTEDTSTDTVYMELRSLTSEDTALYFCATSPGYDFFDYWGQGTLVTVSS VL: SYVLTQPPSVSVAPGQTARITCGGSDIGDEIVHWYQQKPGQAPVLVVYDDSDRPSGIPERFSGSNSGNTATLTISRAQAGDEADYYCQVWDSSSDHLIFGGGTKLTVLG | 53600 | 12.4
17 | anti-mutCALR antibody clone 140 (antibody, human IgG1, lambda, N297A, V domains shown) VH: EVQLVQSGAEVKKPGASVKVSCKVSGYTLTELSMQWVRQAPGKGLEWMGGFDPDAGETMYAEKFQGRLTVTEDTSTDTVYMELSSLRSEDTAVYFCATSPGYDFFDYWGQGTLVTVSS VL: SYVLTQPPSVSVAPGKTARITCGGDNIGSKSVHWYQQKPGQAPVLVVYDDSDRPSGIPERFSGSNSGNTATLTISRVEAGDEADYYCQVWDSSNDLLIFGGGTKLTVLG | 54700 | 4.3
18 | anti-mutCALR antibody clone 136 (antibody, human IgG1, lambda, N297A, V domains shown) VH: EVQLVQSGAEVKKPGASVKVSCKVSGYTLTELSMQWVRQAPGKGLEWMGGFDPDSGETMYAEKFQGRLTVTEDTSTDTVYMELRSLTSEDTALYFCATSPGYDFFDYWGQGTLVTVSS VL: SYVLTQPPSVSVAPGKTARITCGGDNIGSKSVHWYQQKPGQAPVLVVYDDSDRPSGIPERFSGSNSGNTATLTISRVEAGDEADYYCQVWDSSNDLLIFGGGTKLTVLG | 65000 | 2
19 | anti-mutCALR antibody clone 181 (antibody, human IgG1, lambda, N297A, V domains shown) VH: EVQLVQSGAEVKKPGASVKVSCKVSGYTLTELSMQWVRQAPGKGLEWMGGFDPDAGETMYAEKFQGRLTVTEDTSTDTVYMELRSLTSEDTALYFCATSPGYDFFDYWGQGTLVTVSS VL: SYVLTQPPSVSVAPGQTARITCGGSDIGDEIVHWYQQKPGQAPVLVVYDDSDRPSGIPERFSGSNSGNTATLTISRVEAGDEADYYCQVWDSSSDHLIFGGGTKLTVLG | 55600 | 3.5
